Results published in paper PMC6499816, “Molecular determinants regulating selective binding of autophagy adapters and receptors to ATG8 proteins” (Nature Communications, 2019).
Each block holds one substance with its values, some of them ahead of it.

What was measured:
PCM1 WT LIR peptide = assay: BLI; biotinylated LIR peptide immobilised on streptavidin biosensors (Octet Red 96), ATG8 protein in solution; 25 mM Tris pH 7.5, 150 mM NaCl, 0.5 mM TCEP, 0.1% Tween-20, 1 mg/ml BSA, 25 °C; Kd from response against concentration, Y=Rmax*X/(Kd+X)
[1] = biological target: -L1 (recombinant, BLI) (human) (UniProt Q9H0R8); assay: BLI
Chain of -L1 (recombinant, BLI) (human) (Q9H0R8 whole entry): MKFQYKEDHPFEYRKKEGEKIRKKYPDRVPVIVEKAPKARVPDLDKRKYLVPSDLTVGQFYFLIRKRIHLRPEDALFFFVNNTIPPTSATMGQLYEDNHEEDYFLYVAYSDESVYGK

PCM1 V1956D LIR peptide = assay: BLI; biotinylated LIR peptide immobilised on streptavidin biosensors (Octet Red 96), ATG8 protein in solution; 25 mM Tris pH 7.5, 150 mM NaCl, 0.5 mM TCEP, 0.1% Tween-20, 1 mg/ml BSA, 25 °C; Kd from response against concentration, Y=Rmax*X/(Kd+X)
LC3B (Homo sapiens) = LC3B (Homo sapiens) (UniProt Q9GZQ8); assay: ITC; details: cited from earlier work
[2] = biological target: PCM1 LIR peptide (biotinylated, BLI); assay: BLI; biotinylated LIR peptide (50 μg/ml) immobilised on streptavidin biosensor, ATG8 in solution; Octet Red 96; 25 mM Tris pH 7.5, 150 mM NaCl, 0.5 mM TCEP, 0.1% Tween-20, 1 mg/ml BSA; 25 °C; Kd from response against concentration
[3] = biological target: ULK1 LIR peptide (biotinylated, BLI) (human); assay: as above
PCM1 K1957I LIR peptide = assay: BLI; biotinylated LIR peptide immobilised on streptavidin biosensors (Octet Red 96), ATG8 protein in solution; 25 mM Tris pH 7.5, 150 mM NaCl, 0.5 mM TCEP, 0.1% Tween-20, 1 mg/ml BSA, 25 °C; Kd from response against concentration, Y=Rmax*X/(Kd+X)
FIP200 T704I LIR peptide = assay: as above
GFP-GABARAP F60L (human) = GFP-GABARAP F60L (human) (UniProt O95166); assay: co-IP; GFP-TRAP beads, lysates of HEK293A cells expressing GFP-GABARAP or GFP-LC3B constructs, TNTE buffer, 2 h at 4 °C; immunoblot of endogenous proteins, quantified

Chain of GABARAP-L1 (recombinant, BLI) (Q9H0R8 whole entry): as above
Chain of PCM1 LIR peptide mutated at P1962 (X7) (BLI) (Q15154 whole entry, looked up, change not shown, tested part not stated): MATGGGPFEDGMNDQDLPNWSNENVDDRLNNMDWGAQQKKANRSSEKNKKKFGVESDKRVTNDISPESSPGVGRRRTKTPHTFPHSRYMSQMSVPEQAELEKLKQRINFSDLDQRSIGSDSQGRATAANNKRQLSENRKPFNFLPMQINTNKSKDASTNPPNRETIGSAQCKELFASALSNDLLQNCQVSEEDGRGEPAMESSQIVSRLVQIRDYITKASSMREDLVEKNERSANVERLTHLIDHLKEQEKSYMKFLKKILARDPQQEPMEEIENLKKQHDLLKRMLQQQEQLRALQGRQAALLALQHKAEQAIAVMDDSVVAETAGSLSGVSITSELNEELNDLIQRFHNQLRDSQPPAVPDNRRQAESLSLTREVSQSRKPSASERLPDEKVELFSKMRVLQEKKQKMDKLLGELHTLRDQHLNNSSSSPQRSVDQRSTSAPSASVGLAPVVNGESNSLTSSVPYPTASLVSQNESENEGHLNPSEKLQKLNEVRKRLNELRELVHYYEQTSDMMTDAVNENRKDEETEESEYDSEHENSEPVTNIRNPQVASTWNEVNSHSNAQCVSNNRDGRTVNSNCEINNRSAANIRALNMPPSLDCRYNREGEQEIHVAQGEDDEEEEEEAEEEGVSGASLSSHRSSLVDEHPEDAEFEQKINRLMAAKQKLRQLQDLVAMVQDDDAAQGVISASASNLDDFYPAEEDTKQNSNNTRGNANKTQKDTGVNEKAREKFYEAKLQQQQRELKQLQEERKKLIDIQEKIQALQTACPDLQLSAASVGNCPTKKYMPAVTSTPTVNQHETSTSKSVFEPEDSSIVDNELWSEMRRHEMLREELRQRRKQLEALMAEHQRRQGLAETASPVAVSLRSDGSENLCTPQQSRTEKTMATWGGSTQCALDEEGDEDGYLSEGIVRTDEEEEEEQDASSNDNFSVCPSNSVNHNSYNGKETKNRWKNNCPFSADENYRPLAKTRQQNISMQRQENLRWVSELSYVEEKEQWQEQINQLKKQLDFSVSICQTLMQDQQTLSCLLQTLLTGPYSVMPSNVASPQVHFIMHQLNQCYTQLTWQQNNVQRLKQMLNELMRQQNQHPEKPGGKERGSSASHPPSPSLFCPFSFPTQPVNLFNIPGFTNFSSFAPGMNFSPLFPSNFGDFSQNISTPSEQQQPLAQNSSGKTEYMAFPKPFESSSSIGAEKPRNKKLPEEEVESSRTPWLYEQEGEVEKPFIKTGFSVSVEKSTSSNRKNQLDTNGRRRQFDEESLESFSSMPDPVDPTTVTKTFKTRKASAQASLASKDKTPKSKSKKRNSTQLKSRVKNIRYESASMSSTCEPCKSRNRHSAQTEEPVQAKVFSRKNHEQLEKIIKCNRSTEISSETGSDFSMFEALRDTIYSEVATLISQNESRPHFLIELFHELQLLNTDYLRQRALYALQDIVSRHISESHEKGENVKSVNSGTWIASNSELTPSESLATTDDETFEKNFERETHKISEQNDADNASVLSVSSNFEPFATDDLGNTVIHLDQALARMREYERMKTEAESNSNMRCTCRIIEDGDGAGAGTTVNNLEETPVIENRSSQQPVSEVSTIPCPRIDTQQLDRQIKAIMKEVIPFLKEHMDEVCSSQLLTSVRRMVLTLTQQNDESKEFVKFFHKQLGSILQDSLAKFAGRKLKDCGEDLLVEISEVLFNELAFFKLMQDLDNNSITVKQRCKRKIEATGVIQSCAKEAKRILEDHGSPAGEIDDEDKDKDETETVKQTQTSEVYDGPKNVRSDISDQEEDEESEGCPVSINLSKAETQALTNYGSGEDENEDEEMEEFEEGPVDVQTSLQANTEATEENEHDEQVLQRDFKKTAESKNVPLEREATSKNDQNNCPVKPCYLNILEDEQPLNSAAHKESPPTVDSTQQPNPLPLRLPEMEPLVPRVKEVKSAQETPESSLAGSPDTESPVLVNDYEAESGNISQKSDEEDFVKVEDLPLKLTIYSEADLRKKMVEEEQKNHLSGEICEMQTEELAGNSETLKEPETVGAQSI

Kd (PCM1 WT LIR peptide): 16600 nM
Substance: GABARAP K24Q (from UniProt O95166 1-117) (natural protein)

Kd (PCM1 WT LIR peptide): 11400 nM
Substance: GABARAP Y25H (from UniProt O95166 1-117) (natural protein)

Kd (PCM1 WT LIR peptide): 250000 nM
Substance: GABARAP K24Q/Y25H/Q59E/F60L (from UniProt O95166 1-117) (natural protein)

Kd [2]: 2000 nM | Kd [3]: 50 nM
Substance: GABARAP (recombinant, BLI) (from UniProt O95166 1-117) (natural protein)

Kd (FIP200 T704I LIR peptide): 2000 nM | Kd (PCM1 K1957I LIR peptide): 384 nM
Substance: LC3C (from UniProt Q9BXW4 1-126) (natural protein)

percent reduction of interaction against WT GABARAP (GFP-GABARAP F60L (human)): 90%
Substance: PCM1 (pericentriolar material 1), Q15154-5 1-2016

The remaining lines, values behind:

Substance: PCM1 LIR peptide mutated at P1962 (X7) (BLI) (from UniProt Q15154)
Kd [1]: 880 nM

Substance: GABARAP (from UniProt O95166 1-117) (natural protein)
Kd (PCM1 V1956D LIR peptide): 7720 nM

Substance: p62 LIR (from UniProt Q13501)
Kd (LC3B (Homo sapiens)): 3200 nM

Substance: GABARAP-L1 (recombinant, BLI) (from UniProt Q9H0R8 1-117) (natural protein)
Kd [2]: 1600 nM | Kd [3]: 48 nM

Substance: LC3A (from UniProt Q9H492 1-121) (natural protein)
Kd (PCM1 K1957I LIR peptide): 3930 nM

Substance: GABARAP K24Q/Y25H/R28K (from UniProt O95166 1-117) (natural protein)
Kd (PCM1 WT LIR peptide): 66000 nM
